Data taken from the supplement of paper PMC10126150.
± gives the standard deviation of the averaged measurements.

Test system: ATP
Assay: switch fluorescence ratio, 500 uM ATP over buffer (Cy3 cluster intensity, sum of 5 cycles each) (fold (ratio)); higher = stronger signal-on switching upon ATP binding; sequences stand for … in TCGTCGGCAGCGTCAGATGTGTATAAGAGACAGTTTTTTTTTTTTTTTTTTTTTTTTT…TC
Settings: aptamer strand: ATP DNA aptamer (quencher-CACCTGGGGGAGTATTGCGGAGGAAGG + anchor), 100 nM annealed; ATP concentration: 500 uM
Procedure, shortened: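 The fluorescence ratio divides summed target-cycle Cy3 intensity by summed buffer-cycle Cy3 intensity for each cluster and is averaged per switch-domain sequence. Cy3-labelled switching-strand clusters on a modified Illumina MiSeq flow-cell were annealed to 100 nM quencher-labelled ATP aptamer, then imaged in selection buffer and again after 15 min with 500 uM ATP at 22 °C. Five such cycles were run, with NaOH stripping and re-annealing between them, and clusters outside 100-1000 RFU were excluded.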
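Also: ATP exposure 15 min at 22 °C before imaging.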

GGGTTCTTGT showed a switch fluorescence ratio of 1.04 ± 0.057.
With GCTAAATGTT the switch fluorescence ratio was 0.988 ± 0.015.
In the case of CGTGGCTGGT, the switch fluorescence ratio is reported as 0.996 ± 0.013.
With GACTCAGTTG the switch fluorescence ratio was 0.9947 ± 0.0084.
GAGTGTAAGA showed a switch fluorescence ratio of 1 ± 0.034.
With GGTTGAGGAC the switch fluorescence ratio was 1.01 ± 0.057.
In the case of CTTCACAGGG, the switch fluorescence ratio is reported as 1.06 ± 0.04.
GAGTGTCCGG showed a switch fluorescence ratio of 0.982 ± 0.025.
With CTTTTGTCGT the switch fluorescence ratio was 1.01 ± 0.028.
AGGGGTAGGA gave a switch fluorescence ratio of 0.99 ± 0.034.
Work on TCATAATGAT yielded a switch fluorescence ratio of 1.005 ± 0.0032.
Work on AAAATTCAGT yielded a switch fluorescence ratio of 0.9893 ± 0.0089.
CGGTGCGATT showed a switch fluorescence ratio of 1.03 ± 0.019.
Sequence GGTTTCATGG has a switch fluorescence ratio of 0.998 ± 0.012.
In the case of AACCGCTATA, the switch fluorescence ratio is reported as 3.11 ± 1.
In the case of GCTGATTGGA, the switch fluorescence ratio is reported as 0.979 ± 0.055.
In the case of CATGGTAGAG, the switch fluorescence ratio is reported as 0.975 ± 0.034.
With AAGATACAGA the switch fluorescence ratio was 1.07 ± 0.016.
For ACTGTGGACA, the switch fluorescence ratio was 1.02 ± 0.016.
GGCAATATGG gave a switch fluorescence ratio of 1.229 ± 0.011.
GAATTGCGGG gave a switch fluorescence ratio of 1.02 ± 0.087.
Work on TAATTTACCT yielded a switch fluorescence ratio of 1.275 ± 0.0075.
In the case of TATTTCCACT, the switch fluorescence ratio is reported as 1.023 ± 0.01.
Sequence GCCACACAAT has a switch fluorescence ratio of 1.022 ± 0.0014.
With TAGGCTTTGT the switch fluorescence ratio was 1.01 ± 0.021.
GGGTATGAGG showed a switch fluorescence ratio of 0.976 ± 0.032.
In the case of AAGGCGGGG, the switch fluorescence ratio is reported as 0.991 ± 0.011.
TATTAAATTG gave a switch fluorescence ratio of 0.9975 ± 0.0028.
ATATAGGTTG was tested, and the switch fluorescence ratio was 0.974 ± 0.051.
AATTCTCTGT was tested, and the switch fluorescence ratio was 1.03 ± 0.066.
In the case of GCGATCAGCT, the switch fluorescence ratio is reported as 1.034 ± 0.0022.
TATTAATTGC was tested, and the switch fluorescence ratio was 0.995 ± 0.025.
In the case of GGGAGAAGGT, the switch fluorescence ratio is reported as 0.967 ± 0.011.
Work on AAGGTTTTTG yielded a switch fluorescence ratio of 1 ± 0.03.
Work on CCATCATAGG yielded a switch fluorescence ratio of 1.0149 ± 0.00068.
Sequence TGATTTTAGG has a switch fluorescence ratio of 0.9832 ± 0.0061.
For GGGGACCAAC, the switch fluorescence ratio was 1.03 ± 0.021.
Sequence TTAAGTGAGG has a switch fluorescence ratio of 1.02 ± 0.016.
TTTAACAGTT was tested, and the switch fluorescence ratio was 1.01 ± 0.051.
ATGGGGCAGG gave a switch fluorescence ratio of 1.01 ± 0.033.
With TTGGCTGCGG the switch fluorescence ratio was 0.95 ± 0.021.
TGGGAGCCCG gave a switch fluorescence ratio of 0.9853 ± 0.0034.
Sequence GGGCGCCATA has a switch fluorescence ratio of 0.948 ± 0.015.
TAGTTACGAT gave a switch fluorescence ratio of 1.04 ± 0.012.
In the case of GAGTGGTCGC, the switch fluorescence ratio is reported as 1.002 ± 0.0014.
ATTATGAACC was tested, and the switch fluorescence ratio was 1.04 ± 0.016.
GCTGATGTTT was tested, and the switch fluorescence ratio was 1.023 ± 0.0095.
For CCAAATAGGA, the switch fluorescence ratio was 1.01 ± 0.013.
For TTGTTTCTTG, the switch fluorescence ratio was 0.981 ± 0.049.
With GACAGGTGCG the switch fluorescence ratio was 1.274 ± 0.012.
TTTTTTAATC gave a switch fluorescence ratio of 1.02 ± 0.03.
TGTGGTTTAC gave a switch fluorescence ratio of 0.978 ± 0.017.
CGGGAGGGTC was tested, and the switch fluorescence ratio was 1.06 ± 0.012.
In the case of TTGTAAGGTC, the switch fluorescence ratio is reported as 1 ± 0.031.
Work on AACCAGGATT yielded a switch fluorescence ratio of 0.9714 ± 0.0074.
ATCGGAGGGG was tested, and the switch fluorescence ratio was 0.957 ± 0.015.
In the case of AAATTGAGGG, the switch fluorescence ratio is reported as 1.02 ± 0.061.
GACGGGGCG was tested, and the switch fluorescence ratio was 0.97 ± 0.057.
Work on ATGAGCTGGG yielded a switch fluorescence ratio of 0.966 ± 0.015.
GCAGGTGGTG was tested, and the switch fluorescence ratio was 1.08 ± 0.062.
Work on TCTGGGCCTT yielded a switch fluorescence ratio of 0.999 ± 0.023.
GTGATTTTGT was tested, and the switch fluorescence ratio was 1.01 ± 0.032.
With CCAGTAATTG the switch fluorescence ratio was 1.04 ± 0.022.
TGGGTAAATT gave a switch fluorescence ratio of 0.983 ± 0.014.
Work on GATACCGGTG yielded a switch fluorescence ratio of 1.17 ± 0.25.
With ATGGTGGTGT the switch fluorescence ratio was 1.03 ± 0.013.
Sequence GTAAAGCCTG has a switch fluorescence ratio of 0.968 ± 0.032.
AATAAATGTA was tested, and the switch fluorescence ratio was 1.04 ± 0.048.
With TTTGAGTCTT the switch fluorescence ratio was 1 ± 0.039.
For TGCATGTACA, the switch fluorescence ratio was 1.04 ± 0.037.
Work on AACAGGGGGT yielded a switch fluorescence ratio of 1.01 ± 0.032.
For TCTAGGGCAA, the switch fluorescence ratio was 1.66 ± 0.086.
With TACTAGAGCG the switch fluorescence ratio was 1.03 ± 0.04.
For GTGTGAATGT, the switch fluorescence ratio was 1.01 ± 0.021.
AATCTGGGGG was tested, and the switch fluorescence ratio was 1.01 ± 0.018.
Work on CAAAACTTGC yielded a switch fluorescence ratio of 1.18 ± 0.032.
GGAACGGGGT showed a switch fluorescence ratio of 1.01 ± 0.048.
GTTGTATGTG was tested, and the switch fluorescence ratio was 0.965 ± 0.047.
Sequence ATCCAGGTTG has a switch fluorescence ratio of 1.68 ± 0.11.
GTGGTAGGGG showed a switch fluorescence ratio of 0.995 ± 0.025.
With GTGTTGGGGT the switch fluorescence ratio was 0.986 ± 0.02.
For ATAGCTATAA, the switch fluorescence ratio was 1.003 ± 0.0029.
For GGCCAACCCG, the switch fluorescence ratio was 1.0157 ± 0.00094.
Sequence TTGTCCAGGA has a switch fluorescence ratio of 0.977 ± 0.048.
In the case of TTATTCTGCT, the switch fluorescence ratio is reported as 1.03 ± 0.03.
In the case of TCGTTTGTGG, the switch fluorescence ratio is reported as 1.04 ± 0.013.
Work on AGTAAGTTTT yielded a switch fluorescence ratio of 1.032 ± 0.0011.
With TTTCGGGCGC the switch fluorescence ratio was 1.05 ± 0.047.
For TTAGTGTATC, the switch fluorescence ratio was 0.982 ± 0.059.
ACTAGGGTTT showed a switch fluorescence ratio of 1.018 ± 0.0027.
CAAGAAGTGG showed a switch fluorescence ratio of 0.993 ± 0.041.
In the case of TGGGACCCTT, the switch fluorescence ratio is reported as 1.06 ± 0.023.
Sequence AGGGATCGGT has a switch fluorescence ratio of 0.979 ± 0.025.
With CTAGGGGGGG the switch fluorescence ratio was 0.988 ± 0.021.
Work on TTGGTACTTT yielded a switch fluorescence ratio of 0.9841 ± 0.0051.
In the case of AACGCGTCTG, the switch fluorescence ratio is reported as 1.012 ± 0.0037.
In the case of GAGTCCCTGA, the switch fluorescence ratio is reported as 0.993 ± 0.032.
Sequence CCTACACTGG has a switch fluorescence ratio of 1.13 ± 0.048.
With CGCTCAGGAC the switch fluorescence ratio was 1.29 ± 0.1.
TAAAGGTACA showed a switch fluorescence ratio of 1.03 ± 0.018.
With CAGTGTGTGG the switch fluorescence ratio was 0.9696 ± 0.0024.
Sequence GGCTCCGGGG has a switch fluorescence ratio of 1.03 ± 0.024.
GCACTGTGGG was tested, and the switch fluorescence ratio was 1 ± 0.016.
GACGTGACAA showed a switch fluorescence ratio of 1.168 ± 0.0021.
With TAATTTGTCA the switch fluorescence ratio was 1.008 ± 0.0076.
In the case of TTTTAAGCCC, the switch fluorescence ratio is reported as 1.03 ± 0.046.
CCAAGTGGGA gave a switch fluorescence ratio of 0.985 ± 0.01.
TCGGCGACAT gave a switch fluorescence ratio of 1.005 ± 0.0072.
For CGTGGCGCGT, the switch fluorescence ratio was 1.05 ± 0.11.
TTGGGGCTGA gave a switch fluorescence ratio of 0.993 ± 0.037.
TGAGGCAAGG was tested, and the switch fluorescence ratio was 1.69 ± 0.47.
In the case of TTTCGTCGGC, the switch fluorescence ratio is reported as 1.048 ± 0.0018.
GACTGGGGTA gave a switch fluorescence ratio of 0.988 ± 0.011.
GGGCTTTGGC gave a switch fluorescence ratio of 1 ± 0.025.
In the case of GTGTGAGGTG, the switch fluorescence ratio is reported as 1 ± 0.03.
With TTGTTTCAAG the switch fluorescence ratio was 1.01 ± 0.029.
ATGCTGACCT gave a switch fluorescence ratio of 1.01 ± 0.034.
TTACTGTAAT gave a switch fluorescence ratio of 1.18 ± 0.037.
Work on AAACAGTTAT yielded a switch fluorescence ratio of 1.03 ± 0.042.
In the case of GTAATATTAT, the switch fluorescence ratio is reported as 0.974 ± 0.032.
For GATTTCCGTG, the switch fluorescence ratio was 0.98686 ± 0.00065.
For AAGTATTTAG, the switch fluorescence ratio was 0.994 ± 0.024.
TGGGGGAGTA gave a switch fluorescence ratio of 0.952 ± 0.018.
Sequence ATTGGAGGCA has a switch fluorescence ratio of 1.03 ± 0.03.
With AGATGTACTA the switch fluorescence ratio was 1.04 ± 0.043.
GGATGATGCC was tested, and the switch fluorescence ratio was 0.986 ± 0.033.
TGAGGGGAGT was tested, and the switch fluorescence ratio was 0.9908 ± 0.0067.
Work on ATTAAGCCAC yielded a switch fluorescence ratio of 1.12 ± 0.053.
Sequence GGTTGAGCTC has a switch fluorescence ratio of 0.973 ± 0.063.
TGTAATCCGC showed a switch fluorescence ratio of 1.28 ± 0.021.
For CCAGGCAAGC, the switch fluorescence ratio was 2.46 ± 1.3.
CGGAAGTATG showed a switch fluorescence ratio of 1.04 ± 0.025.
With AAGGCGTACT the switch fluorescence ratio was 1.03 ± 0.026.
With GCATGACTTT the switch fluorescence ratio was 1.06 ± 0.028.
With ATGTTTTTCG the switch fluorescence ratio was 0.9718 ± 0.0029.
With TAAGCAGCGA the switch fluorescence ratio was 1.045 ± 0.0036.
TTCCTCGCTT showed a switch fluorescence ratio of 2.75 ± 1.6.
In the case of TAGACAAAAA, the switch fluorescence ratio is reported as 1.08 ± 0.12.
ACTTATATA gave a switch fluorescence ratio of 1.02 ± 0.022.
GATATGTTGA showed a switch fluorescence ratio of 1 ± 0.023.
For GTGTGGGGCG, the switch fluorescence ratio was 0.962 ± 0.058.
Sequence TTGTGTTACG has a switch fluorescence ratio of 0.996 ± 0.047.
With GTTTAAAAAG the switch fluorescence ratio was 0.9958 ± 0.0034.
Work on TTTTCCGGGT yielded a switch fluorescence ratio of 1.02 ± 0.032.
GGGGTTGTAA showed a switch fluorescence ratio of 0.9938 ± 0.0056.
Sequence GGGTTGACCT has a switch fluorescence ratio of 1.07 ± 0.067.
Work on TTGCTGAGCT yielded a switch fluorescence ratio of 0.9984 ± 0.0076.
Sequence TCAGGGGATG has a switch fluorescence ratio of 0.99 ± 0.026.
ATGGTATCT was tested, and the switch fluorescence ratio was 1.08 ± 0.1.
Work on GAGGGGCTGG yielded a switch fluorescence ratio of 0.984 ± 0.046.
For ATACAAGACT, the switch fluorescence ratio was 1.06 ± 0.03.
TCGTGAAGCG was tested, and the switch fluorescence ratio was 1.04 ± 0.025.
In the case of GTGGCTTTAT, the switch fluorescence ratio is reported as 1.01 ± 0.013.
TATTCGTATT was tested, and the switch fluorescence ratio was 0.981 ± 0.029.
For TCCTTGTCTT, the switch fluorescence ratio was 1.01 ± 0.016.
In the case of GGGTTTGTA, the switch fluorescence ratio is reported as 0.965 ± 0.04.
TTTTTCGATT was tested, and the switch fluorescence ratio was 0.982 ± 0.026.
